Columns and labels:
Assay in all cases: flow cytometry on cells; 12G5 antibody competition on 293T cells transiently transfected with CXCR4 wt or mutants (IRES-eGFP vector), eGFP-positive cells gated; serially diluted peptide with a constant concentration of CXCR4 antibody clone 12G5, 2 h; bound antibody read; IC50 by nonlinear regression
Conditions in all cases: one partner purified
[1] = biological target: T1, CXCR4 L41A (human, UniProt P61073-1 1-352, L41A)
T1 construct: human CXCR4, isoform 1 or b; source: 293T cells, transiently transfected (pcDNA3.1 CXCR4-IRES-eGFP), on cells
T1 sequence (P61073 whole entry L41A, canonical isoform): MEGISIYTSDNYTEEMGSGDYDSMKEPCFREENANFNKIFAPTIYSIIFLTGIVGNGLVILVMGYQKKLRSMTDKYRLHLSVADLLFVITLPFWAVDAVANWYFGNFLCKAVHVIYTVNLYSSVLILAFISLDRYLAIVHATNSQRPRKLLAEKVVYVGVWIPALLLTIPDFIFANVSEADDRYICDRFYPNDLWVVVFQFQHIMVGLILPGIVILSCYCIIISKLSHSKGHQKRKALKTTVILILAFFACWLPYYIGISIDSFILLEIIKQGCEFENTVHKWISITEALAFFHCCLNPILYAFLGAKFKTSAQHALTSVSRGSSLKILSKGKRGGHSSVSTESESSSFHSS

[2] = biological target: T2, CXCR4 D97E + V112A + L41A (human, UniProt P61073-1 1-352, L41A | D97E | V112A)
T2 construct: human CXCR4, isoform 1 or b; also called L41A plus D97E plus V112A; source: 293T cells, transiently transfected (pcDNA3.1 CXCR4-IRES-eGFP), on cells
T2 sequence (P61073 whole entry L41A/D97E/V112A, canonical isoform): as the sequence (P61073 whole entry L41A, canonical isoform) above, with D97E, V112A counted along it

[3] = biological target: T3, CXCR4 D97N (human, UniProt P61073-1 1-352, D97N)
T3 construct: human CXCR4, isoform 1 or b; source: 293T cells, transiently transfected (pcDNA3.1 CXCR4-IRES-eGFP), on cells
T3 sequence (P61073 whole entry D97N, canonical isoform): as the sequence (P61073 whole entry L41A, canonical isoform) above, with A41L, D97N counted along it

[4] = biological target: T4, CXCR4 D97E + V112L (human, UniProt P61073-1 1-352, D97E | V112L)
T4 construct: human CXCR4, isoform 1 or b; also called D97E plus V112L; source: 293T cells, transiently transfected (pcDNA3.1 CXCR4-IRES-eGFP), on cells
T4 sequence (P61073 whole entry D97E/V112L, canonical isoform): as the sequence (P61073 whole entry L41A, canonical isoform) above, with A41L, D97E, V112L counted along it

[5] = biological target: T5, CXCR4 D97S (human, UniProt P61073-1 1-352, D97S)
T5 construct: human CXCR4, isoform 1 or b; source: 293T cells, transiently transfected (pcDNA3.1 CXCR4-IRES-eGFP), on cells
T5 sequence (P61073 whole entry D97S, canonical isoform): as the sequence (P61073 whole entry L41A, canonical isoform) above, with A41L, D97S counted along it

[6] = biological target: T6, CXCR4 D97T (human, UniProt P61073-1 1-352, D97T)
T6 construct: human CXCR4, isoform 1 or b; source: 293T cells, transiently transfected (pcDNA3.1 CXCR4-IRES-eGFP), on cells
T6 sequence (P61073 whole entry D97T, canonical isoform): as the sequence (P61073 whole entry L41A, canonical isoform) above, with A41L, D97T counted along it

[7] = biological target: T7, CXCR4 D187E (human, UniProt P61073-1 1-352, D187E)
T7 construct: human CXCR4, isoform 1 or b; source: 293T cells, transiently transfected (pcDNA3.1 CXCR4-IRES-eGFP), on cells
T7 sequence (P61073 whole entry D187E, canonical isoform): as the sequence (P61073 whole entry L41A, canonical isoform) above, with A41L, D187E counted along it

[8] = biological target: T8, CXCR4 D97Q (human, UniProt P61073-1 1-352, D97Q)
T8 construct: human CXCR4, isoform 1 or b; source: 293T cells, transiently transfected (pcDNA3.1 CXCR4-IRES-eGFP), on cells
T8 sequence (P61073 whole entry D97Q, canonical isoform): as the sequence (P61073 whole entry L41A, canonical isoform) above, with A41L, D97Q counted along it

[9] = biological target: T9, CXCR4 V112A (human, UniProt P61073-1 1-352, V112A)
T9 construct: human CXCR4, isoform 1 or b; source: 293T cells, transiently transfected (pcDNA3.1 CXCR4-IRES-eGFP), on cells
T9 sequence (P61073 whole entry V112A, canonical isoform): as the sequence (P61073 whole entry L41A, canonical isoform) above, with A41L, V112A counted along it

[10] = biological target: T10, CXCR4 wt (transfected 293T cells) (human, UniProt P61073-1 1-352)
T10 construct: human CXCR4, isoform 1 or b; eGFP is expressed separately from an IRES, not fused; also called wild-type CXCR4; source: 293T cells, transiently transfected (pcDNA3.1 CXCR4-IRES-eGFP), on cells
T10 sequence (P61073 whole entry, the tested form may be a part, canonical isoform): as the sequence (P61073 whole entry L41A, canonical isoform) above, with A41L counted along it

[11] = biological target: T11, CXCR4 D262A (human, UniProt P61073-1 1-352, D262A)
T11 construct: human CXCR4, isoform 1 or b; source: 293T cells, transiently transfected (pcDNA3.1 CXCR4-IRES-eGFP), on cells
T11 sequence (P61073 whole entry D262A, canonical isoform): as the sequence (P61073 whole entry L41A, canonical isoform) above, with A41L, D262A counted along it

[12] = biological target: T12, CXCR4 E277A (human, UniProt P61073-1 1-352, E277A)
T12 construct: human CXCR4, isoform 1 or b; source: 293T cells, transiently transfected (pcDNA3.1 CXCR4-IRES-eGFP), on cells
T12 sequence (P61073 whole entry E277A, canonical isoform): as the sequence (P61073 whole entry L41A, canonical isoform) above, with A41L, E277A counted along it

[13] = biological target: T13, CXCR4 V112L (human, UniProt P61073-1 1-352, V112L)
T13 construct: human CXCR4, isoform 1 or b; source: 293T cells, transiently transfected (pcDNA3.1 CXCR4-IRES-eGFP), on cells
T13 sequence (P61073 whole entry V112L, canonical isoform): as the sequence (P61073 whole entry L41A, canonical isoform) above, with A41L, V112L counted along it

B1: EPI-X4 (Alb408-423) (peptide)
peptide: LVRYTKKVPQVSTPTL
notes: source: synthetic peptide (Fmoc solid-phase synthesis, HPLC-purified)
With B1 the IC50 [1] was 132 µM, the IC50 [2] was 48.4 µM and the IC50 [3] was > 1000 µM. The IC50 [4] was 223 µM, the IC50 [5] was 785 µM and the IC50 [6] was > 1000 µM. For the same binder, the IC50 [7] was 8.52 µM, the IC50 [8] was > 1000 µM and the IC50 [9] was 11 µM. For the same binder, the IC50 [10] was 6.99 µM, the IC50 [11] was 5.21 µM and the IC50 [12] was 8.91 µM. For the same binder, the IC50 [13] was 41.1 µM.

Reference: publication PMC8458281, “Computational modeling and experimental validation of the EPI-X4/CXCR4 complex allows rational design of small peptide antagonists” (Communications Biology, 2021)
